Results taken from the supplement of paper PMC10065799, “High-throughput profiling of sequence recognition by tyrosine kinases and SH2 domains using bacterial peptide display” (eLife, 2023).

Experiments:
AncSZ = assay: phosphorylation enrichment, bacterial display (enrichment ratio); higher = better substrate or ligand; peptides without Tyr show the background
EPHB1 = EPHB1 (UniProt P54762); assay: as above
EPHB2 = EPHB2 (UniProt P29323); assay: as above
FGFR1 = FGFR1 (UniProt P11362); assay: as above
FGFR3 = FGFR3 (UniProt P22607); assay: as above
Fer (mouse) = assay: as above
Fes = Fes (UniProt P07332); assay: as above
Fyn = Fyn (UniProt P06241); assay: as above
Hck = Hck (UniProt P08631); assay: as above
Jak2 = Jak2 (UniProt O60674); assay: as above
MERTK = MERTK (UniProt Q12866); assay: as above
c-Abl (mouse) = assay: as above
c-Src = assay: as above
Grb2 SH2 = Grb2 SH2 (UniProt P62993); assay: SH2 binding enrichment of the phosphorylated peptide, bacterial display (enrichment ratio); higher = better substrate or ligand; peptides without Tyr show the background
SHP2-C SH2 = assay: as above
c-Src SH2 = assay: as above
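For SH2 binding enrichment of the phosphorylated peptide, bacterial display in this document: peptide library displayed on the E. coli surface as eCPX fusions, selected cells deep-sequenced, score is each peptide's frequency after selection divided by its frequency in the input.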
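For phosphorylation enrichment, bacterial display in this document: 11-residue human phosphosite peptides and single-mutation variants displayed on the E. coli surface, counted by deep sequencing, each peptide's frequency after selection divided by its frequency in the unselected input library; frequency after pTyr selection over input frequency; kinase dosed for 20-30% of maximal phosphorylation in three min.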

Sequence of Hck (P08631 whole entry, looked up): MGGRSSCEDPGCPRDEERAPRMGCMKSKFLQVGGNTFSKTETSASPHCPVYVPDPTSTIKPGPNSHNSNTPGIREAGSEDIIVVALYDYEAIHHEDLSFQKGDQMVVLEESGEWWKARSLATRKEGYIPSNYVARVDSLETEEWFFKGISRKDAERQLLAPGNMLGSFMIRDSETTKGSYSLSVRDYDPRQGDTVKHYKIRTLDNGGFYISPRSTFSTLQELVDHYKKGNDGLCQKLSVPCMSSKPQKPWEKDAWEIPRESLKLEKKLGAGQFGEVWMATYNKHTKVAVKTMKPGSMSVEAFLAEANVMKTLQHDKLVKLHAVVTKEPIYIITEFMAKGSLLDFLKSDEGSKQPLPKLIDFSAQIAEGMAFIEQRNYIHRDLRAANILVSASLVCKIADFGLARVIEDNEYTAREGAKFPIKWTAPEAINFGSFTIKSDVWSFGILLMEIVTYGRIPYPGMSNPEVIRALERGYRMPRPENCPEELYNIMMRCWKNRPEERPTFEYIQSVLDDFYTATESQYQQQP
Sequence of Fes (P07332 whole entry, looked up): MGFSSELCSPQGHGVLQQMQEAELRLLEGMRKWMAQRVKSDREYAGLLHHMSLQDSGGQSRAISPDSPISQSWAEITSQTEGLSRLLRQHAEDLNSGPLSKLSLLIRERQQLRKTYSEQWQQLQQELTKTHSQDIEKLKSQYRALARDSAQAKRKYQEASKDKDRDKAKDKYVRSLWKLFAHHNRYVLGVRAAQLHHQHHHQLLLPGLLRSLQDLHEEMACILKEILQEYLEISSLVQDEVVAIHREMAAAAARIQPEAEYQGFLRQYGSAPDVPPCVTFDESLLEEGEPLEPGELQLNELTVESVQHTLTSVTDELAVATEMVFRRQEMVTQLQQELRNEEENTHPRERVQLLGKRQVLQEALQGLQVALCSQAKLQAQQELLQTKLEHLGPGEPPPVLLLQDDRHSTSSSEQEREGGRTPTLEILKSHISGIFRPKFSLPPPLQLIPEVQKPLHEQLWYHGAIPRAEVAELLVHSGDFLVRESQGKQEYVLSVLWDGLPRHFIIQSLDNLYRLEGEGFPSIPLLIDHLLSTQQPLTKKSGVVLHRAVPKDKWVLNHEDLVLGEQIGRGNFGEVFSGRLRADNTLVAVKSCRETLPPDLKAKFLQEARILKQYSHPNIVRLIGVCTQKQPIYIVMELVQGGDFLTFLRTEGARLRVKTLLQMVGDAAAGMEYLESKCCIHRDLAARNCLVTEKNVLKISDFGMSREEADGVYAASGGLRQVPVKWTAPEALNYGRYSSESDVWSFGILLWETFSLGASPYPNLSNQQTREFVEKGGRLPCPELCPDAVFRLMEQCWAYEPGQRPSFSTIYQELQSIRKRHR
Sequence of FGFR3 (P22607 whole entry, looked up): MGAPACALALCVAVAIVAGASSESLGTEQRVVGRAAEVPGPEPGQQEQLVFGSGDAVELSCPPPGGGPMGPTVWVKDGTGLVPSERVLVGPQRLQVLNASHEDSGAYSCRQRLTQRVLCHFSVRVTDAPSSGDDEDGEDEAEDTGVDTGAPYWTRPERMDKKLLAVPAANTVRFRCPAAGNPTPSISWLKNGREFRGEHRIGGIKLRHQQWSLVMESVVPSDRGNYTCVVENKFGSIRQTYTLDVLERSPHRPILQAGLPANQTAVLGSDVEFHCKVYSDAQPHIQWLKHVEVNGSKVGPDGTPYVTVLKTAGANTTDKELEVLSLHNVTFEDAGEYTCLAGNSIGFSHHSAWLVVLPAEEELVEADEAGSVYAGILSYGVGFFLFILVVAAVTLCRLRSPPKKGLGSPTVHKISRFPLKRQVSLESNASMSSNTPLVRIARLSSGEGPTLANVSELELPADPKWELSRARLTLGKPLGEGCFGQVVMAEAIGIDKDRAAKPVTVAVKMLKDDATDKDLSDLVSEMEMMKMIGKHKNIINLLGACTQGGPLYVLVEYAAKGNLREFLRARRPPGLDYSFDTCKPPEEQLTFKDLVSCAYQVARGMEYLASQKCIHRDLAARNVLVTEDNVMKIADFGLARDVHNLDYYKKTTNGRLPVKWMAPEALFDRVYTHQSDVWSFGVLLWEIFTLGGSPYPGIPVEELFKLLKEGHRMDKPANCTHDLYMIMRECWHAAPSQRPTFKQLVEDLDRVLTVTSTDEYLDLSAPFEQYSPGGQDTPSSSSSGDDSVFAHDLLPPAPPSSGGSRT
Sequence of Jak2 (O60674 whole entry, looked up): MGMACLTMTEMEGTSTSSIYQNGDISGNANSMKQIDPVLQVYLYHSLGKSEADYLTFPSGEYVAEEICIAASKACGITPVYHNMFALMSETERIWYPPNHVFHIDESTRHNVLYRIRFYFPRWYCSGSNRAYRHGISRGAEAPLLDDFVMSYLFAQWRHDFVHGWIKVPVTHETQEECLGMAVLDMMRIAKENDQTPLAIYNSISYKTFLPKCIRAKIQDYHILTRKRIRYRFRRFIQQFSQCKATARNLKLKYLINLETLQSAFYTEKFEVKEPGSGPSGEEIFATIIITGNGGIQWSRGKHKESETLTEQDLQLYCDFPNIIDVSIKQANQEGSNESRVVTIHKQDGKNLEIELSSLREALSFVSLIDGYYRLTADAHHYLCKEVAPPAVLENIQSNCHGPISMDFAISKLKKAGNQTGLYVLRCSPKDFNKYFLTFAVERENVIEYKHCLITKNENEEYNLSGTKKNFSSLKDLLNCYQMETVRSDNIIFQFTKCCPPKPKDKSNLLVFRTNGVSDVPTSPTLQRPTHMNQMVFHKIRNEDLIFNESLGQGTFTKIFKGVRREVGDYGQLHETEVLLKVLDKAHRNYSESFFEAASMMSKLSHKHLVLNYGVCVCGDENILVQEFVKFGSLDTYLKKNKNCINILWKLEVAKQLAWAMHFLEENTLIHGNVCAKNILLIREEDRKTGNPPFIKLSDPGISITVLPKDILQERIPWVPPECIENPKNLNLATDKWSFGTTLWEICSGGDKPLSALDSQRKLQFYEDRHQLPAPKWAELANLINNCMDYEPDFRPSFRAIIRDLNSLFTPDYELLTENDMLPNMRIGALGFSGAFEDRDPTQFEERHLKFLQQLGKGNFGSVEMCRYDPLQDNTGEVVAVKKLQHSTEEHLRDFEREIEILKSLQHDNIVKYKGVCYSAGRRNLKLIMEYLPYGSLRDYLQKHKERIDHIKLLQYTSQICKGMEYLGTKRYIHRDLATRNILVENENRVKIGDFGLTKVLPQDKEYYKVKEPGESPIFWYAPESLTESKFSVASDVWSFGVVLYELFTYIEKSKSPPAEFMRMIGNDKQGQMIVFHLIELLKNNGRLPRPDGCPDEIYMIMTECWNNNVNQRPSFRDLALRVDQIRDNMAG
Sequence of EPHB2 (P29323 whole entry, looked up): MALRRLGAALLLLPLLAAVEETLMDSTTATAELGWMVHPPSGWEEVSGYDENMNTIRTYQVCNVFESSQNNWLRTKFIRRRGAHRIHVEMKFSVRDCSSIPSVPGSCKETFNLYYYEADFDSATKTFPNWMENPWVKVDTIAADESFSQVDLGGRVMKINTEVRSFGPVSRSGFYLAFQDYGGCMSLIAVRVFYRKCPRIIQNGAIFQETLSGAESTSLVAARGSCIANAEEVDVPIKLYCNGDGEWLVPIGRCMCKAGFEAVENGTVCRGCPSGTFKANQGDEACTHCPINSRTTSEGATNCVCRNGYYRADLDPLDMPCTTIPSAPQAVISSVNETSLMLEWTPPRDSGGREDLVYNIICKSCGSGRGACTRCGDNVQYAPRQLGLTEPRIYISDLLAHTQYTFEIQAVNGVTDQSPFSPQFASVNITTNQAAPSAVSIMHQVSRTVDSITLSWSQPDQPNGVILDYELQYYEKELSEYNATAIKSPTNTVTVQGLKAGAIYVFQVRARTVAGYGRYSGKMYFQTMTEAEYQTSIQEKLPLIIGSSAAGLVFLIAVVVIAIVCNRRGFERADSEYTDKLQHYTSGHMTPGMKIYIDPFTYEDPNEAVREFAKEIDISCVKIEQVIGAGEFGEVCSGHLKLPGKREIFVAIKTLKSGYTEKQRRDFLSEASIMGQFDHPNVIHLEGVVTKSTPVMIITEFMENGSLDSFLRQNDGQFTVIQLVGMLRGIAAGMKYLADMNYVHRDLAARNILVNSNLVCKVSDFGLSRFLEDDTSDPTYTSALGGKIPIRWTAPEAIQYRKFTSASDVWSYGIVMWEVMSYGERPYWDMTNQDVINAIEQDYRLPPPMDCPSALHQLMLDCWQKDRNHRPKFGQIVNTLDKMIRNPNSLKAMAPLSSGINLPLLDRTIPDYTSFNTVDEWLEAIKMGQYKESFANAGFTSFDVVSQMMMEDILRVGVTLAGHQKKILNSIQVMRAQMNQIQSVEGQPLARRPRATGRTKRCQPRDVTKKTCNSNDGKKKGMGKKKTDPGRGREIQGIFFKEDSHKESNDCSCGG
Sequence of Fyn (P06241 whole entry, looked up): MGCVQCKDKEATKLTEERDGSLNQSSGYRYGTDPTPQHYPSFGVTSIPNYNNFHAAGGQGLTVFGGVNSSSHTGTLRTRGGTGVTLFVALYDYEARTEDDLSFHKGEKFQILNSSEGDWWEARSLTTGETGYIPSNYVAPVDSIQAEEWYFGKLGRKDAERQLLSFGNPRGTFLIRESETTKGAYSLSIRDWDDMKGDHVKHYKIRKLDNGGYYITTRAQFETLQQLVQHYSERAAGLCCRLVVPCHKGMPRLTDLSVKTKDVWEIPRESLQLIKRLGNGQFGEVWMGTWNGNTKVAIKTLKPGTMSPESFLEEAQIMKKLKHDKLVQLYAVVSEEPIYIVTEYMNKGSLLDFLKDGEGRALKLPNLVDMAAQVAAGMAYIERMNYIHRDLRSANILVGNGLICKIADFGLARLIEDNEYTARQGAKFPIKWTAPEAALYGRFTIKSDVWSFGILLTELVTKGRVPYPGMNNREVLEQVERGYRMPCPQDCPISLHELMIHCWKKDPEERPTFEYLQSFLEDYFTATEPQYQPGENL

Row | Sequence | SH2 binding enrichment (Grb2 SH2) | SH2 binding enrichment (SHP2-C SH2) | SH2 binding enrichment (c-Src SH2) | phosphorylation enrichment (AncSZ) | phosphorylation enrichment (EPHB1) | phosphorylation enrichment (EPHB2) | phosphorylation enrichment (FGFR1) | phosphorylation enrichment (FGFR3) | phosphorylation enrichment (Fer (mouse)) | phosphorylation enrichment (Fes) | phosphorylation enrichment (Fyn) | phosphorylation enrichment (Hck) | phosphorylation enrichment (Jak2) | phosphorylation enrichment (MERTK) | phosphorylation enrichment (c-Abl (mouse)) | phosphorylation enrichment (c-Src)
1 | RGYRQYAYDGK [HLA-A_Y140_D140Y] | 0.679 | 0.607 | 0.44 | 0.478 | 0.674 | 0.243 | 0.426 | 0.39 | 0.317 | 0.474 | 0.252 | 0.294 | 0.402 | 0.423 | 0.532 | 0.434
2 | LLANAYIYVVQ [L1CAM_Y418] | 0.9 | 0.787 | 0.484 | 1.29 | 0.847 | 0.69 | 0.679 | 1.01 | 0.588 | 1.52 | 0.645 | 0.687 | 1.43 | 0.516 | 0.983 | 0.602
3 | DPTFGYEDFTR [SESN2_Y323] | 0.821 | 0.771 | 5.25 | 1.08 | 0.525 | 0.577 | 0.481 | 0.699 | 0.445 | 1.28 | 0.461 | 0.595 | 1.03 | 0.545 | 0.733 | 0.694
4 | IGVGSYSVCKR [RPS6KA3_Y433] | 0.867 | 0.88 | 0.938 | 0.716 | 0.369 | 0.412 | 0.354 | 0.496 | 0.385 | 0.878 | 0.317 | 0.383 | 0.618 | 0.445 | 0.53 | 0.362
5 | HKLSYYEYDFE [BTK_Y40] | 1.05 | 0.941 | 3.4 | 1.86 | 2.02 | 1.38 | 7.25 | 4.03 | 0.64 | 2.13 | 2.13 | 0.952 | 1.6 | 3.67 | 1.26 | 2.48
6 | NRLTDYFEPLL [BBS10_Y536_YF] | 1.02 | 0.842 | 0.711 | 1.71 | 2.54 | 1.16 | 6.99 | 4.38 | 0.468 | 0.993 | 0.755 | 0.548 | 0.959 | 0.381 | 0.675 | 0.406
7 | LERYIYNPEEF [HLA-DPB1_Y59_R61P] | 0.866 | 0.851 | 0.677 | 1.48 | 0.783 | 0.965 | 0.875 | 0.902 | 0.85 | 1.74 | 2.16 | 1.56 | 2.66 | 0.682 | 1.32 | 3.71
8 | DTSKMYIPHTD [EXPH5_Y782] | 0.679 | 0.512 | 0.417 | 0.624 | 0.487 | 0.405 | 0.445 | 0.577 | 0.436 | 0.786 | 0.372 | 0.427 | 0.606 | 0.399 | 0.549 | 0.371
9 | PNRILYRDFRQ [MYH7_Y715_G716R] | 0.847 | 0.676 | 0.557 | 0.633 | 0.544 | 0.615 | 0.472 | 0.573 | 0.373 | 0.778 | 0.307 | 0.452 | 0.79 | 0.574 | 0.74 | 0.485
10 | LGRTRYQHVTG [MIPEP_Y510] | 0.881 | 0.767 | 0.748 | 0.694 | 0.439 | 0.393 | 0.477 | 0.428 | 0.377 | 0.723 | 0.488 | 0.309 | 0.559 | 0.499 | 0.564 | 0.445
11 | RSSNTYTLMDV [ALCAM_Y298_T301M] | 0.78 | 0.7 | 6.21 | 1.01 | 0.633 | 0.868 | 1.26 | 1.17 | 1.42 | 0.793 | 1.55 | 0.676 | 0.309 | 4.15 | 0.614 | 1.58
12 | MFCASYDTKQE [F10_Y407_G406S] | 0.774 | 0.749 | 0.733 | 1.01 | 0.536 | 0.717 | 0.561 | 0.746 | 0.571 | 1.17 | 0.558 | 0.554 | 0.986 | 0.552 | 0.731 | 0.511
13 | IGEGTSGVVYK [CDK2_Y15_Y15S] | 0.639 | 0.562 | 0.361 | 0.574 | 0.374 | 0.319 | 0.299 | 0.426 | 0.339 | 0.616 | 0.28 | 0.306 | 0.494 | 0.274 | 0.5 | 0.29
14 | RGEKQYLAAPL [ALOX12_Y295] | 0.709 | 0.431 | 0.409 | 0.777 | 0.402 | 0.461 | 0.754 | 0.341 | 0.365 | 0.416 | 0.436 | 0.545 | 0.523 | 0.377 | 0.504 | 0.505
15 | INNIDYFKNTT [FGFR2_Y656_K659N_YF] | 0.81 | 0.692 | 0.36 | 0.471 | 0.374 | 0.327 | 0.377 | 0.474 | 0.317 | 0.687 | 0.393 | 0.401 | 0.463 | 0.408 | 0.421 | 0.301
16 | CGTPEYRAPEI [PRKACA_Y205_L206R] | 0.767 | 0.735 | 0.52 | 1.17 | 0.687 | 0.605 | 0.603 | 0.825 | 0.582 | 1.35 | 0.517 | 0.549 | 0.984 | 0.467 | 3.88 | 0.432
17 | VPVDGYISGLL [PAK6_Y81_M76V] | 0.893 | 0.568 | 0.573 | 0.911 | 0.75 | 0.85 | 0.568 | 0.656 | 0.559 | 1.01 | 0.519 | 0.542 | 1.18 | 0.602 | 0.745 | 0.657
18 | IGERTYGQVFK [CDK13_Y716_G714R_YF] | 0.857 | 0.754 | 0.519 | 0.62 | 0.468 | 0.557 | 0.368 | 0.482 | 0.456 | 0.905 | 7.52 | 3.7 | 0.495 | 0.4 | 0.474 | 5.22
19 | SVVVPFEPPEV [TP53_Y220_Y220F] | 0.807 | 0.537 | 0.469 | 1.04 | 0.578 | 0.628 | 0.533 | 0.668 | 0.467 | 1.22 | 0.41 | 0.502 | 1.06 | 0.39 | 0.866 | 0.552

Continued, in another order:

Row | SH2 binding enrichment (Grb2 SH2) | SH2 binding enrichment (SHP2-C SH2) | SH2 binding enrichment (c-Src SH2) | Sequence | phosphorylation enrichment (AncSZ) | phosphorylation enrichment (EPHB1) | phosphorylation enrichment (EPHB2) | phosphorylation enrichment (FGFR1) | phosphorylation enrichment (FGFR3) | phosphorylation enrichment (Fer (mouse)) | phosphorylation enrichment (Fes) | phosphorylation enrichment (Fyn) | phosphorylation enrichment (Hck) | phosphorylation enrichment (Jak2) | phosphorylation enrichment (MERTK) | phosphorylation enrichment (c-Abl (mouse)) | phosphorylation enrichment (c-Src)
20 | 0.728 | 0.637 | 1.14 | REENGYNTFAS [FGF10_Y161_I156R_YF] | 0.973 | 0.617 | 0.709 | 0.728 | 0.862 | 0.558 | 1 | 0.84 | 0.4 | 0.91 | 0.69 | 0.606 | 0.827
21 | 0.807 | 0.638 | 1.54 | PLQKIYNYNVL [SLC4A1_Y553_T552I] | 0.585 | 0.773 | 1.05 | 0.514 | 1.04 | 0.582 | 1 | 0.409 | 0.564 | 1.05 | 1.09 | 0.748 | 1.32
22 | 1.14 | 0.888 | 0.594 | LSAPCYLNRIS [HEXA_Y421_W420C] | 0.825 | 0.447 | 0.552 | 0.495 | 0.535 | 0.424 | 0.82 | 0.377 | 0.507 | 0.634 | 0.382 | 0.631 | 0.422
23 | 1.47 | 1.77 | 0.857 | LLLLFCVVRFC [MPZ_Y177_Y177C_YF] | 1.01 | 0.803 | 0.56 | 0.973 | 1.56 | 1.16 | 1.12 | 0.712 | 0.75 | 0.607 | 0.718 | 0.933 | 0.719
24 | 1.03 | 1.17 | 0.829 | KDHPDYKYQRR [SOX10_Y171_P175R] | 0.483 | 0.33 | 0.3 | 0.402 | 0.369 | 0.303 | 0.574 | 0.283 | 0.367 | 0.519 | 0.349 | 0.516 | 0.319
25 | 0.753 | 0.631 | 0.405 | PRDGEYFTLQI [TP53_Y327_L323R] | 2.81 | 1.31 | 1.19 | 11.7 | 8.55 | 0.775 | 1.38 | 2.55 | 2.14 | 3.26 | 0.93 | 1.75 | 3.76
26 | 0.874 | 11.9 | 0.775 | LRNIDYYRLDG [ATRX_Y2083] | 1.3 | 1.07 | 0.776 | 13.1 | 8.11 | 0.499 | 1.58 | 3.96 | 1.16 | 6.17 | 0.851 | 0.815 | 3.35
27 | 0.802 | 0.853 | 0.751 | YKEQGYHRLPS [RIN1_Y681_P686S] | 0.531 | 0.245 | 0.366 | 0.485 | 0.485 | 0.363 | 0.508 | 0.366 | 0.279 | 0.763 | 0.413 | 0.455 | 0.439
28 | 1.06 | 0.878 | 0.584 | EEQKKYYNAVK [SCN5A_Y1494_M1498V] | 0.651 | 0.368 | 0.433 | 0.425 | 0.486 | 0.393 | 0.789 | 0.429 | 0.496 | 0.625 | 0.426 | 0.574 | 0.548
29 | 0.794 | 6.24 | 7.8 | LTERGYSFVTT [ACTA1_Y200] | 1.4 | 0.796 | 0.95 | 0.927 | 1.17 | 0.823 | 1.41 | 0.582 | 0.708 | 1.1 | 0.769 | 0.941 | 0.657
30 | 0.952 | 0.841 | 0.559 | NKPTVCGVSPN [ABL1_Y226_Y226C] | 0.655 | 0.476 | 0.536 | 0.526 | 0.589 | 0.441 | 0.919 | 0.439 | 0.404 | 0.759 | 0.467 | 0.996 | 0.5
31 | 0.891 | 1.12 | 0.551 | PLDEEYFTLQI [TP53_Y327_G325E] | 2.96 | 1.02 | 0.888 | 4.65 | 4.54 | 0.691 | 2.25 | 1.91 | 1.2 | 2.57 | 0.941 | 1.13 | 2.69
32 | 0.979 | 0.697 | 0.586 | VCDSDYSASRW [LRP5_Y1552] | 1.16 | 0.691 | 0.877 | 0.449 | 0.684 | 0.455 | 1.02 | 0.603 | 0.518 | 0.731 | 0.382 | 0.737 | 0.518
33 | 0.755 | 0.553 | 0.784 | KDQGTYEDYVE [MYL6_Y86] | 1.24 | 0.493 | 0.576 | 0.534 | 0.721 | 0.56 | 1.23 | 0.647 | 0.617 | 1.13 | 0.543 | 0.866 | 0.768
